Assay results taken from patent US20230340137A1 (published 2023).

Molecular target: T1, B-cell maturation antigen (BCMA) (human, UniProt Q02223 1-184)
T1 sequence (looked up): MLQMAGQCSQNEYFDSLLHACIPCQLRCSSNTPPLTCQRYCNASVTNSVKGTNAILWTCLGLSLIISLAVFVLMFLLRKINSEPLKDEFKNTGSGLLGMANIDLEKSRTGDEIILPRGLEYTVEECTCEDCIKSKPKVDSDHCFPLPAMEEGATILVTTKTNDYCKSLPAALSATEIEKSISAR
Assay: cell-based or functional assay

B1: PF-06863135 (bispecific antibody, human IgG2)
heavy 1: EVQLLESGGGLVQPGGSLRLSCAASGFTFSSYPMSWVRQAPGKGLEWVSAIGGSGGSLPYADIVKGRFTISRDNSKNTLYLQMNSLRAEDTAVYYCARYWPMDIWGQGTLVTVSSASTKGPSVFPLAPCSRSTSESTAALGCLVKDYFPEPVTVSWNSGALTSGVHTFPAVLQSSGLYSLSSVVTVPSSNFGTQTYTCNVDHKPSNTKVDKTVERKCEVECPECPAPPVAGPSVFLFPPKPKDTLMISRTPEVTCVVVAVSHEDPEVQFNWYVDGVEVHNAKTKPREEQFNSTFRVVSVLTVVHQDWLNGKEYKCKVSNKGLPSSIEKTISKTKGQPREPQVYTLPPSREEMTKNQVSLTCEVKGFYPSDIAVEWESNGQPENNYKTTPPMLDSDGSFFLYSKLTVDKSRWQQGNVFSCSVMHEALHNHYTQKSLSLSPGK
light 1: EIVLTQSPGTLSLSPGERATLSCRASQSVSSSYLAWYQQKPGQAPRLLMYDASIRATGIPDRFSGSGSGTDFTLTISRLEPEDFAVYYCQQYQSWPLTFGQGTKVEIKRTVAAPSVFIFPPSDEQLKSGTASVVCLLNNFYPREAKVQWKVDNALQSGNSQESVTEQDSKDSTYSLSSTLTLSKADYEKHKVYACEVTHQGLSSPVTKSFNRGEC
heavy 2: EVQLVESGGGLVQPGGSLRLSCAASGFTFSDYYMTWVRQAPGKGLEWVAFIRNRARGYTSDHNPSVKGRFTISRDNAKNSLYLQMNSLRAEDTAVYYCARDRPSYYVLDYWGQGTTVTVSSASTKGPSVFPLAPCSRSTSESTAALGCLVKDYFPEPVTVSWNSGALTSGVHTFPAVLQSSGLYSLSSVVTVPSSNFGTQTYTCNVDHKPSNTKVDKTVERKCRVRCPRCPAPPVAGPSVFLFPPKPKDTLMISRTPEVTCVVVAVSHEDPEVQFNWYVDGVEVHNAKTKPREEQFNSTFRVVSVLTVVHQDWLNGKEYKCKVSNKGLPSSIEKTISKTKGQPREPQVYTLPPSREEMTKNQVSLTCLVKGFYPSDIAVEWESNGQPENNYKTTPPMLDSDGSFFLYSRLTVDKSRWQQGNVFSCSVMHEALHNHYTQKSLSLSPGK
light 2: not shown
EC50 of cell viability (killing) of H929-Luc cells co-cultured with human CD3+ T cells, 72 hr, luminescence; with GSI: 0.0055 nM | EC50 of cell viability (killing) of H929-Luc cells co-cultured with human CD3+ T cells, 72 hr, luminescence; without GSI: 0.167 nM | EC50 of cell viability (killing) of Molp8-Luc cells co-cultured with human CD3+ T cells, 72 hr, luminescence; with GSI: 0.0202 nM | EC50 of cell viability (killing) of Molp8-Luc cells co-cultured with human CD3+ T cells, 72 hr, luminescence; without GSI: 0.108 nM | EC50 of cell viability (killing) of OPM2-Luc cells co-cultured with human CD3+ T cells, 72 hr, luminescence; with GSI: 0.0033 nM | EC50 of cell viability (killing) of OPM2-Luc cells co-cultured with human CD3+ T cells, 72 hr, luminescence; without GSI: 0.0528 nM | EC50 of cell viability (killing) of RPMI8226-Luc cells co-cultured with human CD3+ T cells, 72 hr, luminescence; with GSI: 0.0017 nM | EC50 of cell viability (killing) of RPMI8226-Luc cells co-cultured with human CD3+ T cells, 72 hr, luminescence; without GSI: 0.0092 nM
